Test system: peptide library, one residue held at a place counted from the S/T acceptor
Assay: relative phosphorylation of the sub-library (ratio to the mean residue at this position); higher = residue favoured
Details: human
How it was run: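 Purified recombinant kinases were reacted in 384-well plates with biotinylated degenerate peptide sub-libraries, each having one residue fixed at one position around a central Ser/Thr. The reaction mix contained 50 μM peptide plus 50 μM ATP spiked with γ-32P-ATP and ran for 90 min under kinase-specific conditions. Relative sub-library phosphorylation, taken from densitometry of phosphorimaged streptavidin membrane spots, is a ratio to the mean residue at that position.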

Sequence of AKT3, construct: aa106-end (Q9Y243 106-479, looked up): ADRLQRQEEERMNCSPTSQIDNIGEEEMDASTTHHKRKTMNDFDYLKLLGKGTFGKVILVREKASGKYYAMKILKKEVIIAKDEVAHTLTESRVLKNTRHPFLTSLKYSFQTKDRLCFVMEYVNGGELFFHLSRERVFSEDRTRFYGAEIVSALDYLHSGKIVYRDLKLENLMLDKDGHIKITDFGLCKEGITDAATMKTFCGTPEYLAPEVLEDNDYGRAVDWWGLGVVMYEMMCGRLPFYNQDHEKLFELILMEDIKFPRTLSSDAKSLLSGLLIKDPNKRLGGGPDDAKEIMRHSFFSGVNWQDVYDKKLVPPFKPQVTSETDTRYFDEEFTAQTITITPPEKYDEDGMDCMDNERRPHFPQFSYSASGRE
Sequence of AKT2, construct: Full length (P31751 whole entry, looked up): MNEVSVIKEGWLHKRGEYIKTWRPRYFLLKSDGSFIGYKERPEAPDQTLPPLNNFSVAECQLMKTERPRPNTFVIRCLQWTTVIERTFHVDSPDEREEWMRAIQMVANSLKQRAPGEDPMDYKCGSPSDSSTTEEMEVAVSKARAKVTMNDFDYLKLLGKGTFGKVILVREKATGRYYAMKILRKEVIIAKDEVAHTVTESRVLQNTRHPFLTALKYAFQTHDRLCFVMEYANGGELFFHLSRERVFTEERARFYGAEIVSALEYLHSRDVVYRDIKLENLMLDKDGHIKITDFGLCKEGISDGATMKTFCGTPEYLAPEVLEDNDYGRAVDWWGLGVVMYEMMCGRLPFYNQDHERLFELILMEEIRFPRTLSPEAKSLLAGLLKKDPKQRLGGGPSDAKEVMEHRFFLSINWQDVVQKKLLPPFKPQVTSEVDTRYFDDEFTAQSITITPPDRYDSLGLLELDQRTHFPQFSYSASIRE
Sequence of BRAF, construct: aa444-721 (P15056 444-721, looked up): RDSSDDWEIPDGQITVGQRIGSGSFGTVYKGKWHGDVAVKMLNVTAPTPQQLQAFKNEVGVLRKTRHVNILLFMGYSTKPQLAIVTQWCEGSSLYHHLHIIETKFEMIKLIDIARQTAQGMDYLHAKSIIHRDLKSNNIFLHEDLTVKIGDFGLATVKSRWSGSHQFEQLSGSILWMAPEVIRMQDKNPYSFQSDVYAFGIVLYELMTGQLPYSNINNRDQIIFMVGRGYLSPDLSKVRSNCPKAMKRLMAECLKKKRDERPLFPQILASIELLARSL

AKT2, construct: Full length (from UniProt P31751)
relative phosphorylation
Details	at +1	at +2	at +3	at +4	at -1	at -2	at -3	at -4	at -5
A fixed	0.789	1.29	1.06	0.923	0.951	0.988	0.523	1.15	1.09
D fixed	0.487	0.644	0.589	0.615	0.663	0.303	0.213	0.571	0.519
E fixed	0.448	0.575	0.584	0.595	0.457	0.304	0.231	0.647	0.536
F fixed	1.78	0.673	0.86	0.681	0.795	0.446	0.288	0.7	0.931
G fixed	0.854	1.36	1.27	1.23	1.16	0.615	0.351	1.19	1.05
H fixed	0.947	1.76	1.39	1.15	1.28	0.822	0.546	1.03	1.04
I fixed	1.14	0.734	0.617	0.687	0.43	0.438	0.274	0.661	0.711
K fixed	1.02	1.33	1.79	1.96	1.36	2.83	1.91	1.98	1.67
L fixed	1.11	0.872	0.859	0.736	0.772	0.784	0.29	0.797	0.838
M fixed	1.35	0.8	0.735	0.814	0.984	0.488	0.291	0.888	0.872
N fixed	1.1	1.23	0.919	1.06	1.67	0.547	0.304	0.914	0.807
P fixed	0.722	0.925	1.02	1.64	1.12	0.385	0.34	0.972	1.02
Q fixed	1.19	0.881	0.964	1.11	1.12	0.657	0.48	0.986	0.841
R fixed	1.12	1.41	1.82	1.68	1.61	6.03	10.1	2.35	2.51
V fixed	1.01	0.92	0.743	0.64	0.523	0.486	0.275	0.701	0.736
W fixed	0.972	0.723	0.888	0.705	0.737	0.437	0.294	0.674	0.907
Y fixed	0.971	0.878	0.887	0.765	1.38	0.441	0.311	0.803	0.927
pThr fixed	0.772	1.1	0.808	0.932	0.441	0.482	0.346	0.752	0.776
pTyr fixed	0.884	1.13	1.01	0.71	0.83	0.425	0.32	0.641	0.809

AKT3, construct: aa106-end (from UniProt Q9Y243)
relative phosphorylation
Details	at +1	at +2	at +3	at +4	at -1	at -2	at -3	at -4	at -5
A fixed	0.69	1.13	0.867	0.755	0.872	0.914	0.532	1.12	1.27
D fixed	0.38	0.56	0.496	0.586	0.669	0.149	0.13	0.491	0.464
E fixed	0.326	0.385	0.465	0.496	0.35	0.142	0.138	0.558	0.437
F fixed	2.25	0.596	0.824	0.604	0.783	0.32	0.168	0.611	0.672
G fixed	0.775	1.29	1.18	1.07	1.28	0.494	0.329	1.04	1.06
H fixed	0.962	2.06	1.45	1.11	1.18	1.17	0.56	0.991	1.18
I fixed	1.29	0.723	0.938	0.691	0.245	0.274	0.131	0.515	0.577
K fixed	0.962	1.31	1.9	1.8	1.65	3.02	1.5	2.19	2.15
L fixed	1.14	0.987	0.872	0.682	0.746	0.772	0.165	0.645	0.557
M fixed	1.58	0.774	0.718	0.716	1.12	0.391	0.179	0.833	0.648
N fixed	1.01	1.15	0.911	1.02	1.81	0.373	0.241	0.843	0.734
P fixed	0.407	0.746	0.842	2.68	1.14	0.283	0.406	1.06	1.2
Q fixed	0.895	0.716	0.981	0.98	1.03	0.429	0.502	1.02	0.797
R fixed	1.09	1.82	1.86	1.54	1.63	7.37	11.4	3.08	2.97
V fixed	1.23	1.02	0.711	0.659	0.402	0.324	0.147	0.639	0.692
W fixed	0.989	0.917	1.11	0.911	0.647	0.253	0.218	0.638	0.847
Y fixed	1.04	0.812	0.87	0.697	1.46	0.326	0.222	0.727	0.752
pThr fixed	0.571	0.463	0.682	0.639	0.279	0.294	0.255	0.612	0.545
pTyr fixed	0.643	0.656	0.74	0.517	0.787	0.263	0.223	0.537	0.618

BRAF, construct: aa444-721 (from UniProt P15056)
relative phosphorylation
Details	at +1	at +2	at +3	at +4	at -1	at -2	at -3	at -4	at -5
A fixed	0.66	0.762	0.791	0.965	1.06	1.07	1.09	0.86	1.06
D fixed	0.675	1.38	0.941	1.09	1.92	0.748	0.994	1.52	1.48
E fixed	1.3	0.94	0.898	0.966	1.36	1	1.01	1.21	1.18
F fixed	1.44	0.67	1.06	0.762	0.539	0.983	0.935	0.684	0.7
G fixed	0.592	0.644	0.953	1.15	1.05	0.572	0.752	0.953	0.991
H fixed	0.864	1.49	0.97	1.09	1.78	1.26	0.902	0.908	1.11
I fixed	1.95	1.09	1.1	0.733	0.422	1.64	0.712	0.488	0.701
K fixed	0.533	0.749	0.714	1.11	0.775	0.686	1.34	0.743	1.32
L fixed	1.22	0.773	1.25	0.842	0.609	1.05	1.51	0.596	0.762
M fixed	1.26	1.23	1.22	0.826	1.23	0.931	1.27	0.629	0.897
N fixed	0.849	1.5	1.13	1.24	1.77	0.932	0.861	0.905	1.14
P fixed	0.377	0.631	0.805	1.57	0.337	0.499	0.666	0.945	1.15
Q fixed	0.956	1.51	0.995	1	1.14	0.892	0.929	0.765	0.889
R fixed	0.673	0.848	0.902	1.08	1.17	0.839	1.46	0.629	1.06
V fixed	1.76	1.2	0.935	0.661	0.504	1.55	0.707	0.546	0.687
W fixed	0.769	0.802	1.44	1.1	0.589	1.09	1.13	3.93	1.01
Y fixed	1.12	0.776	0.898	0.813	0.775	1.25	0.725	0.69	0.859
pThr fixed	1.08	0.723	0.835	0.85	0.577	0.992	0.807	0.776	0.945
pTyr fixed	0.912	0.736	0.945	0.792	1.13	1.58	0.734	0.655	1

Reference: the supplement of paper PMC9876800
